The DeepSol protein solubility set

Experiment: soluble on expression in E. coli; label from the status in PepcDB or PDB records

Sequence	soluble on expression in E. coli
EVKLQESGPSLVKPSQTLSLTCSVTGDSITSDFWSWIRQFPGNRLEYMGFVQYSGETAYNPSLKSRISITRDTSKNQYYLDLNSVTTEDTAVYYCANWHGDYWGQGTTVTVSSAKTTPPSVYPLAPGSAAQTNSMVTLGCLVKGYFPEPVTVTWNSGSLSSGVHTFPAVLQSDLYTLSSSVTVPSSTWPSETVTCNVAHPASSTKVDKKIVPRDCHHHHHH	soluble
EVQLQQSGAELVRPGTSVKLSCKASGYSFTNYWMNWLRQRPGQGLDWIGMIHPSDSETRLNQKFKDKATLTVDRSSSTAYIQLSSPTSEDSAVYYCARDDYDGAFWGQGTLVTVSAAKTTPPSVYPLAPGSAAQTNSMVTLGCLVKGYFPAPVTVTWNSGSLSSGVHTFPAVLQSDLYTLSSSVTVPSSTWPSETVTCNVAHPASSTKVDKKIVPRDC	soluble
EYLDGFEAFTDQYKIKFQEFLDRFGIYYQPSTNKNAELFKVADSDIPSAEVKAYYVKEEWYFTPTNSDVDIKIQAICPIMTGQDEFGEVRNQPLFWIPYENIRPYIARERVMLSSLNNTRNSTIDDFFRLNLYKGDIVKTENLHNRALAEYCPTPDSMKMESKRIDKELQGFRDGLFVTQDTTWMKQAETKKSKGKKLEKARGKNITSRTRGQGEGAAETEAVEPKKQKASKNKAATRSVRRRK	not soluble
FNFGASYKNFSFSAQFGASWGTYALVQTDLRQEKYDDLEYKNVSAMWKDMYVYEDVLDAGGNVVAPMNRSAKYPNLRYSAINGQASTFWKVSAASVRLRNLTVAYSLPKEWTNRIGISSCRLNLTAQNLLNFYNPYPDGVWSTWGGTYGRYPNLRKVTLGVNVSF	not soluble
FRFGLPIFHTIRWLVNLSKGKLEEPRNREGRPVSKNKKGKIKQPYRFFGEIFESMDQLTETLRRDKRNREKIQATREEWIAGLSHDLKTPLSSIYGYSMMLESKQYDWSPEEGEEMGQVVREKSEYMSKLIEDLNLTYRLKNDALPIERKLTSLIPFFKNVIEDFKKNPFSEGYDISFVSKEEHIEFALDEAWFRRILENLLGNAVKHNGKGTEIQVILEQTKNHISLKVKDNGKGMDEETITHLFNRYYRGTNTKDSTAGTGLGLAIAKELVHLHNGTIHVNSRTNIGTVITILFK	not soluble
FRGFRYNAGVYFDRSRNKLTEFGAEEIGSYSIKREGLPYDEYYMLECIGVFADQAEINASPKQFNDNTQPGDLKYKDISGPDGKPDGVIDNYDRRTFSGRFPGFEYGINASATWKGFDLSLIGQGVADKKYYTTDWGVQPFMQGSSPNKDYIKHMWTEENPYGAKHPKLYWQDMGGGKNTRPNSYYLKDASFFRLKNLTLGYTLPRVWTEKANISKVRIYFSGDNLLTLTPYKGLDPERNGDGRDAIYPQNRIYSFGLNVEF	not soluble
FVNVGERTNVTGSKMFARLVREEKYDEALAVARQQVENGAQIIDVNMDEAMLDSVACMHRFLNLIASEPDIARVPVMIDSSKWEVIETGLKCVQGKAVVNSISMKEGEEPFRHHARLCRRYGAAMVVMAFDEQGQADSLERRKEICGRAYRILVEEEGFPPEDIIFDPNVFAVATGIDEHNHYAVDFIEGARWIRANLPHARISGGISNVSFSFRGNEPMREAIHTVFLYYAIEAGLTMGIVNAGQLGVYADLAPHLRDLVEDVILDRPE	not soluble
GAEPKGLLRVDLPVSLGRMVVIPALPEFTRRYPQVRLEIGMSDRPVDLIREGVDCVLRAGAALDEALVARPLGSLTQITCASREYLQQHGTPLQLEDLAHHQVIEYFSASTSKRYGLEFVGEGGAPDHGLACSISVNSADGY	not soluble
GAMDENDEGVRGTCEDASLCKRFAVSIGYWHDPYIQHFVRLSKERKAPEINRGYFARVHGVSQLIKAFLRKTECHCQIVNLGAGMDTTFWRLKDEDLLPSKYFEVDFPMIVTRKLHSIKCKPPLSSPILELHSEDTLQMDGHILDSKRYAVIGADLRDLSELEEKLKKCNMNTQLPTLLIAECVLVYMTPEQSANLLKWAANSFERAMFINYEQVNEGKSLESQKERLLSNGWETASAVDMMELYNRLPRAEVSRIESLEFLDEMELLEQLMRHYCLCWATKGGNELGLKEITY	soluble
GAMDTMESIVLNTIVTGLQEPKKEFIARVIKTIGSQRSLQLYENAMKVENSGGLLTADMSRRKTIGGVFCYLLKQLVAEDQITIQEWNYIRQEEKERINAKNILKRNNRRCQV	soluble
GAMESHPHIQLLKSNRELLVTHIRNTQCLVDNLLKNDYFSAEDAEIVCACPTQPDKVRKILDLVQSKGEEVSEFFLYLLQQLADAYVDLRPWLLEIGFSPSLLTQSKVVVNTDPVSRYTQQLRHHLG	soluble
GAMGMKVDVGPDPSLVYRPDVDPEMAKSKDSFRNYTSGPLLDRVFTTYKLMHTHQTVDFVSRKRIQYGSFSYKKMTIMEAVGMLDDLVDESDPDVDFPNSFHAFQTAEGIRKAHPDKDWFHLVGLLHDLGKIMALWGEPQWAVVGDTFPVGCRPQASVVFCDSTFQDNPDLQDPRYSTELGMYQPHCGLENVLMSWGHDEYLYQMMKFNKFSLPSEAFYMIRFHSFYPWHTGGDYRQLCSQQDLDMLPWVQEFNKFDLYTKCPDLPDVESLRPYYQGLIDKYCPGTLSW	soluble
GAMKNSFDRLIDGLAKDYGMPGFPEKKHEHEVYCFEFKEVSIRIYQDKFKWVYFLSDIGVIDNLDSNACQSLLRLNEFNLRTPFFTVGLNEKKDGVVHTRIPLLNLDNVEMRRVFEALLNLSGEVKKTFGFV	soluble
GAMSCIKGNVDLVFLFDGSMSLQPDEFQKILDFMKDVMKKLSNTSYQFAAVQFSTSYKTEFDFSDYVKRKDPDALLKHVKHMLLLTNTFGAINYVATEVFREELGARPDATKVLIIITDGEATDSGNIDAAKDIIRYIIGIGKHFQTKESQETLHKFASKPASEFVKILDTFEKLKDLFTELQKKIYVIEG	soluble
GAMSSPAGSPTEQAPPAKGSVKVLRTVATGLNSPWGLAPLPGGDLLVSSRDEATITRVDAKTGRKTELGEVPGVSPSGEGGLLGIALSPDYASDHMVYAYFTSASDNRIVRMLYDEKKPSGEQLGAPDTVFRGIPKGVIHNGGRIAFGPDKMLYAGTGESGDTGLSQDRKSLGGKILRMTPDGEPAPGNPFPGSPVYSYGHRNVQGLAWDDKQRLFASEFGQDTWDELNAIKPGDNYGWPEAEGKGGGSGFHDPVAQWSTDEASPSGIAYAEGSVWMAGLRGERLWRIPLKGTAAAADPQAFLEGEYGRLRTVAPAGGDKLWLVTSNTDGRGDAKGGDDRILELEVE	soluble
GAQNEKNMYSYKKIGNKYIVSINNHTEIVKALNAFCKEKGILSGSINGIGAIGELTLRFFNPKTKAYDDKTFREQMEISNLTGNISSMNEQVYLHLHITVGRSDYSALAGHLLSAIQNGAGEFVVEDYSERISRTYNPDLGLNIYDFER	soluble
GDTHEFHKLLIKVVDLFLEDRIKEFEMKLNTTLDELEFEELIGKPDSSNSAENNGIFIDEYSYDASENAMKKLFVEYVRQPEFKYTVLSIKGVNDWVRE	soluble
GEALDYKTPLLKALAAVDKAATEVCQLFDKNVTRVFTNLGWEQEYFLVDSSLYNARPDLCLTGRTLMGHSSAKDQQLEDHYFGSIPPRVTAFMKELEIECHKLGIPAKTRHNEVAPNQFELAPIFENCNLANDHNQLVMDLMKRIARKHHFNVLLHEKPYSSVNGSGKHNNWSLCTDTGINLFAPGKNPKGNMLFLTFLVNVLMMVYKNQDLLRASIMSASNSYRLGANEAPPAILSCFLGSQLSATLDEIVRQVGNEKMTPEEKTTLKLGIGRIPEILLDTTDRNRTSPFAFTGNRFEFRAAGSSSNCAAAMIAINAAMANQLNEFRASVEKLMEEGVGKDEAIFRLLKETIIASEAIRFEGDGYSEEWRQEAARRGLTNICHVPEALMHYVDNQSKSVLIGERIFNETELNSRLEVELEKYTMKVQIEGRVLGDLAINH	not soluble
GEDFFFVVMRDISSKKILEREFSMNEQLFKDLFDRAVDGIVLFDKDGGFIDANLSFCKSFEINHNELSHLSLYEFIDSGSRKDFDNIWKALNRKGKAKGELPVKLRSGVQKLFEFTITSNII	not soluble
GEDKKGGTKPSNEAALTKTENLDFRLSFNKIKVTTDQNHFSGGTSIEQLKQWFGDPNKSEQRNAGNITLDSYTWVKDGAVINAQLYKNSTVARSISNFSFSREAKIGKEDYDELKIGESYKKIVEKLGEPDVLSQSMSSDKEEMQTVWSSGIKTKSSSATIELYFENGLLKNKTQKDLE	soluble
GEEEKKRTARTDYWLQPEIIVKIITKKLGEKYHKKKAIVKEVIDKYTAVVKMIDSGDKLKLDQTHLETVIPAPGKRILVLNGGYRGNEGTLESINEKTFSATIVIETGPLKGRRVEGIQYEDISKLA	soluble
GEEQPQQISVASGTPVSADQTPATPQEQPRAPWWDASPGVQRLITLKDPQVVCEAASAGLLKTLRFVKYLPCFQILPLDQQLVLVRSCWAPLLMLELAQDHLHFEMMEIPETNTTQEMLTTRRQETEGPEPAEPQATEQPQMVSAEAGHLLPAAAVQAIKSFFFKCWSLNIDTKEYAYLKGTVLFNPDLPGLQCVKYIEGLQWRTQQILTEHIRMMQREYQIRSAELNSALFLLRFINSDVVTELFFRPIIGAVSMDDMMLEMLCAKL	soluble
GFTVALIQGDGIGPEIVSKSKRILAKINELYSLPIEYIEVEAGDRALARYGEALPKDSLKIIDKADIILKGPVGESAADVVVKLRQIYDMYANIRPAKSIPGIDTKYGNVDILIVRENTEDLYKGFEHIVSDGVAVGMKIITRFASERIAKVGLNFALRRRKKVTCVHKANVMRITDGLFAEACRSVLKGKVEYSEMYVDAAAANLVRNPQMFDVIVTENVYGDILSDEASQIAGSLGIAPSANIGDKKALFEPVHGAAFDIAGKNIGNPTAFLLSVSMMYERMYELSNDDRYIKASRALENAIYLVYKERKALTPDVGGNATTDDLINEIYNKLG	soluble
GGGSCYFIPNEGVPGDSTRKCMDLKGNKHPINSEWQTDNCETCTCYETEISCCTLVSTPVGYDKDNCQRIFKKEDCKYIVVEKKDPKKTCSVSEWII	soluble
GGSHMELPGSSMKPSGEDQAALAAGPWEECFQAAVQLALRAGQIIRKALTEEKRVSTKTSAADLVTETDHLVEDLIISELRERFPSHRFIAEEAAASGAKCVLTHSPTWIIDPIDGTCNFVHRFPTVAVSIGFAVRQELEFGVIYHCTEERLYTGRRGRGAFCNGQRLRVSGETDLSKALVLTEIGPKRDPATLKLFLSNMERLLHAKAHGVRVIGSSTLALCHLASGAADAYYQFGLHCWDLAAATVIIREAGGIVIDTSGGPLDLMACRVVAASTREMAMLIAQALQTINYGRDDEK	soluble
GHHHHHHAIAENLYFQSHGHGGYDSDFSDDEHCGESSKRKKRTVEDDLLLQKPFQKEKHGKVAHKQVAAELLDREEARNRRFHLIAMDAYQRHRKFVNDYILYYGGKKEDFKRLGENDKTDLDVIRENHRFLWNEEDEMDMTWEKRLAKKYYDKLFKEYCIADLSKYKENKFGFRWRVEKEVISGKGQFFCGNKYCDKKEGLKSWEVNFGYIEHGEKRNALVKLRLCQECSIKLNFHHRRKEIKSKKRKDKTKKDCEESSHKKSRLSSAEEASKKKDKGHSSSKKSEDSLLRNSDEEESASESELWKGPLPETDEKSQEEEFDEYFQDLFL	soluble
GHMGITRDVQVPDVRGQSSADAIATLQNRGFKIRTLQKPDSTIPPDHVIGTDPAANTSVSAGDEITVNVSTGPEQREIPDVSTLTYAEAVKKLTAAGFGRFKQANSPSTPELVGKVIGTNPPANQTSAITNVVIIIVGSGPATKDIPDVAGQTVDVAQKNLNVYGFTKFSQASVDSPRPAGEVTGTNPPAGTTVPVDSVIELQVSKGNQFVMPDLSGMFWVDAEPRLRALGWTGMLDKGADVDAGGSQHNRVVYQNPPAGTGVNRDGIITLRFGQ	soluble
